The text below walks through data of patent US20170165339A1 (IMMATICS BIOTECHNOLOGIES, published 2017).

The target in the assay is HLA-A*02 (human). In words: UV peptide-exchange ELISA, yield grade. (ELISA stands for enzyme-linked immunosorbent assay.)
VTSNSGILGV [VTSNSGILGV (SEQ ID NO: 131)] returned a peptide exchange yield of 50 to 75%.

Turning to FISERVEVV [FISERVEVV (SEQ ID NO: 153)], the peptide exchange yield was no less than 75%.

The molecule KIFPAALQLV [KIFPAALQLV (SEQ ID NO: 232)] displayed a peptide exchange yield of 50 to 75%.

Molecule ALLAKILQI [ALLAKILQI (SEQ ID NO: 138)] gave a peptide exchange yield of 50 to 75%.

The molecule FLDKVLVAA [FLDKVLVAA (SEQ ID NO: 141)] gave a peptide exchange yield of 50 to 75%.

Take ALLPRLHQL [ALLPRLHQL (SEQ ID NO: 133)]: the peptide exchange yield is no less than 75%.

As for GLCERLVSL [GLCERLVSL (SEQ ID NO: 249)], the peptide exchange yield is no less than 75%.

Turning to AILAHLNTV [AILAHLNTV (SEQ ID NO: 229)], the peptide exchange yield was no less than 75%.

FLLPTGAEA [FLLPTGAEA (SEQ ID NO: 139)] registered a peptide exchange yield of 20 to 49%.

With ALHFSEDEI [ALHFSEDEI (SEQ ID NO: 146)], the peptide exchange yield is 20 to 49%.

In turn, WLYGEDHQI [WLYGEDHQI (SEQ ID NO: 242)] returned a peptide exchange yield of 20 to 49%.

YLMDDTVEI [YLMDDTVEI (SEQ ID NO: 147)] showed a peptide exchange yield of no less than 75%.

MLAGIAITV [MLAGIAITV (SEQ ID NO: 148)] yielded a peptide exchange yield of 50 to 75%.

In the case of KTIQQLETV [KTIQQLETV (SEQ ID NO: 241)], the peptide exchange yield was in the range of 20 to 49%.

The molecule STIAILNSV [STIAILNSV (SEQ ID NO: 236)] returned a peptide exchange yield of 50 to 75%.

Molecule SLAPATPEV [SLAPATPEV (SEQ ID NO: 250)] gave a peptide exchange yield of 50 to 75%.

On to KLQNIMMLL [KLQNIMMLL (SEQ ID NO: 230)], for which the peptide exchange yield is 20 to 49%.

SLLDLPLSL [SLLDLPLSL (SEQ ID NO: 245)] had a peptide exchange yield of no less than 75%.

In turn, KMNESTRSV [KMNESTRSV (SEQ ID NO: 239)] registered a peptide exchange yield of 20 to 49%.

Regarding FMADDIFSV [FMADDIFSV (SEQ ID NO: 243)], the peptide exchange yield lay in the range of 50 to 75%.

As for FLFGGVLMTL [FLFGGVLMTL (SEQ ID NO: 136)], the peptide exchange yield fell in the range of 20 to 49%.

The molecule YLLEKNRVV [YLLEKNRVV (SEQ ID NO: 244)] yielded a peptide exchange yield of 20 to 49%.

With ALLPELREV [ALLPELREV (SEQ ID NO: 143)], the peptide exchange yield was in the range of 50 to 75%.

As for VLYDRPLKI [VLYDRPLKI (SEQ ID NO: 150)], the peptide exchange yield was 50 to 75%.

The molecule RLLGTEFQV [RLLGTEFQV (SEQ ID NO: 154)] came in with a peptide exchange yield of 50 to 75%.

Consider HLFDAFVSV [HLFDAFVSV (SEQ ID NO: 233)], for which the peptide exchange yield is 50 to 75%.

The molecule SVLDSTAKV [SVLDSTAKV (SEQ ID NO: 151)] returned a peptide exchange yield of 20 to 49%.

The molecule TLTSLLAQA [TLTSLLAQA (SEQ ID NO: 157)] yielded a peptide exchange yield of 50 to 75%.

In turn, TVSDVLNSV [TVSDVLNSV (SEQ ID NO: 246)] returned a peptide exchange yield of 50 to 75%.

Molecule ALAPHLDDA [ALAPHLDDA (SEQ ID NO: 237)] yielded a peptide exchange yield of 50 to 75%.

MMVGDLLEV [MMVGDLLEV (SEQ ID NO: 152)] came in with a peptide exchange yield of 50 to 75%.

GLAVPTPSV [GLAVPTPSV (SEQ ID NO: 134)]: the peptide exchange yield was in the range of 50 to 75%.

Take ALYEGYATV [ALYEGYATV (SEQ ID NO: 247)]: the peptide exchange yield is 50 to 75%.

SLLGGTFVGI [SLLGGTFVGI (SEQ ID NO: 130)] registered a peptide exchange yield of 50 to 75%.

The molecule GLYERPTAA [GLYERPTAA (SEQ ID NO: 238)] yielded a peptide exchange yield of 20 to 49%.

The molecule LLNPVVEFV [LLNPVVEFV (SEQ ID NO: 155)] registered a peptide exchange yield of 50 to 75%.

In turn, ILGEVLAQL [ILGEVLAQL (SEQ ID NO: 132)] yielded a peptide exchange yield of 50 to 75%.

For LLSPHNPAL [LLSPHNPAL (SEQ ID NO: 234)], the peptide exchange yield fell in the range of 50 to 75%.

As for YLWATIQRI [YLWATIQRI (SEQ ID NO: 145)], the peptide exchange yield lay within 50 to 75%.

ILGDLSHLL [ILGDLSHLL (SEQ ID NO: 156)]: the peptide exchange yield is 50 to 75%.

The molecule ILVEGISTV [ILVEGISTV (SEQ ID NO: 142)] displayed a peptide exchange yield of 50 to 75%.

ILNTHITEL [ILNTHITEL (SEQ ID NO: 149)] gave a peptide exchange yield of 50 to 75%.

MLDKYSHYL [MLDKYSHYL (SEQ ID NO: 231)] yielded a peptide exchange yield of 50 to 75%.

Consider HLSTIIHEA [HLSTIIHEA (SEQ ID NO: 135)], for which the peptide exchange yield lay in the range of 50 to 75%.

ALLAFFPGL [ALLAFFPGL (SEQ ID NO: 144)] came in with a peptide exchange yield of 50 to 75%.

With YMGEEKLIASV [YMGEEKLIASV (SEQ ID NO: 240)], the peptide exchange yield is 50 to 75%.

In turn, YLDRFLAGV [YLDRFLAGV (SEQ ID NO: 248)] gave a peptide exchange yield of no less than 75%.

Molecule RLQDILWFL [RLQDILWFL (SEQ ID NO: 129)] showed a peptide exchange yield of no less than 75%.

Take KIIDFLSAL [KIIDFLSAL (SEQ ID NO: 235)]: the peptide exchange yield was in the range of 50 to 75%.
